Reference: IntAct's records for PubMed 19368893

B1: ADP-ribosylation factor-like protein 2-binding protein (Homo sapiens), Q9Y2Y0 (parent)
chain: MDALEGESFALSFSSASDAEFDAVVGYLEDIIMDDEFQLLQRNFMDKYYLEFEDTEENKLIYTPIFNEYISLVEKYIEEQLLQRIPEFNMAAFTTTLQHHKDEVAGDIFDMLLTFTDFLAFKEMFLDYRAEKEGRGLDLSSGLVVTSLCKSSSLPASQNNLRH

Variants of: B1
Settings: with arl2_human ARL2, P36404
arl2_human ARL2, P36404, sequence (P36404 whole entry): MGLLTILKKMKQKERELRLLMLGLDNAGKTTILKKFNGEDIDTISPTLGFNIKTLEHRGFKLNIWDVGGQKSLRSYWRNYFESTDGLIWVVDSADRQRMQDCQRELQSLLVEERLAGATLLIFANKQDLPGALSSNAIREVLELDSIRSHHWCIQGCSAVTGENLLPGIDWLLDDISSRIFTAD

Variant | effect of a mutation on the interaction
MDALEGESFALSFSSASDAEFDAVVGYLEDIIMDDEFQLLQRNFMDKYYLEFEDTAENKLIYTPIFNEYISLVEKYIEEQLLQRIPEFNMAAFTTTLQHHKDEVAGDIFDMLLTFTDFLAFKEMFLDYRAEKEGRGLDLSSGLVVTSLCKSSSLPASQNNLRH [E56A] | decreasing interaction
MDALEGESFALSFSSASDAEFDAVVGYLEDIIMDDEFQLLQRNFMDKYYLEFEDTEANKLIYTPIFNEYISLVEKYIEEQLLQRIPEFNMAAFTTTLQHHKDEVAGDIFDMLLTFTDFLAFKEMFLDYRAEKEGRGLDLSSGLVVTSLCKSSSLPASQNNLRH [E57A] | decreasing interaction
MDALEGESFALSFSSASDAEFDAVVGYLEDIIMDDEFQLLQRNFMDKYYLEFEDTEENKAIYTPIFNEYISLVEKYIEEQLLQRIPEFNMAAFTTTLQHHKDEVAGDIFDMLLTFTDFLAFKEMFLDYRAEKEGRGLDLSSGLVVTSLCKSSSLPASQNNLRH [L60A] | decreasing interaction
MDALEGESFALSFSSASDAEFDAVVGYLEDIIMDDEFQLLQRNFMDKYYLEFEDTEENKLIYTPIFNEYISLVAKYIEEQLLQRIPEFNMAAFTTTLQHHKDEVAGDIFDMLLTFTDFLAFKEMFLDYRAEKEGRGLDLSSGLVVTSLCKSSSLPASQNNLRH [E74A] | decreasing interaction
MDALEGESFALSFSSASDAEFDAVVGYLEDIIMDDEFQLLQRNFMDKYYLEFEDTEENKLIYTPIFNEYISLVEKYIEEQLLQRIPEFNMAAFTTTLQHHKDEVAGDIADMLLTFTDFLAFKEMFLDYRAEKEGRGLDLSSGLVVTSLCKSSSLPASQNNLRH [F109A] | decreasing interaction
MDALEGESFALSFSSASDAEFDAVVGYLEDIIMDDEFQLLQRNFMDKYYLEFEDTEENKLIYTPIFNEYISLVEKYIEEQLLQRIPEFNMAAFTTTLQHHKDEVAGDIFAMLLTFTDFLAFKEMFLDYRAEKEGRGLDLSSGLVVTSLCKSSSLPASQNNLRH [D110A] | decreasing interaction
MDALEGESFALSFSSASDAEFDAVVGYLEDIIMDDEFQLLQRNFMDKYYLEFEDTEENKLIYTPIFNEYISLVEKYIEEQLLQRIPEFNMAAFTTTLQHHKDEVAGDIFDMALTFTDFLAFKEMFLDYRAEKEGRGLDLSSGLVVTSLCKSSSLPASQNNLRH [L112A] | decreasing interaction
MDALEGESFALSFSSASDAEFDAVVGYLEDIIMDDEFQLLQRNFMDKYYLEFEDTEENKLIYTPIFNEYISLVEKYIEEQLLQRIPEFNMAAFTTTLQHHKDEVAGDIFDMLLTATDFLAFKEMFLDYRAEKEGRGLDLSSGLVVTSLCKSSSLPASQNNLRH [F115A] | decreasing interaction
